From the supplement of paper PMC9732359
± gives the uncertainty stated by the source.

Test: protein stability index of a GFP-peptide fusion (yeast GPS) (PSI 1-4); higher = more stable; sorted into four equal gates, so the index is relative within each strain
Conditions: doa10∆
Method in brief: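 Tiled 17-residue peptides from yeast proteins were fused downstream of GFP on a plasmid that also expresses Cherry, and the pooled library was carried in yeast. Mid-log cultures grown in leucine-free medium were sorted into four equal gates by GFP/Cherry fluorescence ratio. Plasmids from each gate were PCR-amplified and Illumina-sequenced, and reads were assigned to strains by barcodes. Each peptide's protein stability index is the sum, over gates, of the gate's read frequency multiplied by its gate number.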

Sequence	protein stability index
VVAAAEDDDNEQHEEKA [QCR6]	2.87 ± 0.12
VVDFTSLPEELKKRYDL [YMR129W/POM152]	2.14 ± 0.21

Same assay, conditions: pdr5∆

Sequence	protein stability index
VFLRNRLKYALNGREVK [RPS4A]	2.82 ± 0.12
VFNDAHVLNKVTLASIL [RPN1]	2.09 ± 0.065
VFVGTIFAGAFVFQTVF [QCR9]	1.4 ± 0.049
VFYQVTPEDADEEEDDE [RPL22B]	2.33 ± 0.068
VGASVVVVKNWGAETDE [RPS12]	3.12 ± 0.089
VGDIVDIKANGSIQKGM [RPL21A]	1.9 ± 0.065
VGKRVRYLVGGNKIQKV [RPS7A]	1.98 ± 0.18
VGKYDKAIELLEKALQG [SRP72]	1.66 ± 0.17
VGMRYFHKQQAHFWKPV [RPL28]	3.02 ± 0.11
VGTAIDSILNYAKSEFD [ECM29]	2.77 ± 0.1
VHTANFSERGSNTRTMT [MED2]	3.35 ± 0.26
VICSVTGPIEPKARQEL [RRP46]	3.06 ± 0.11
VIDIEIHVLEQDGGIMG [SKI6]	2.56 ± 0.095
VINLKQIAKFVVGLGER [RPT1]	3.39 ± 0.18
VISLGPNLATFISSGTS [YJL039C/NUP192]	2.64 ± 0.065
VISMFVLPIFTTVFFSR [YML031W/NDC1]	1.16 ± 0.065
VITPHFITNVQSISQNS [SWI1]	2.45 ± 0.11
VIVTDPRSDAQAIKEAS [RPS0A]	2.96 ± 0.08
VKEEKEDMETQASDPSK [RPC53]	3.41 ± 0.2
VKFYEIFNFDQLVEITE [SRB8]	1.35 ± 0.088
VKGLLNTYKRLVIGIFK [YJL039C/NUP192]	2.46 ± 0.051
VKIVDKDGIRQVDDFQA [PRE1]	2.9 ± 0.11
VKLGLNSKMPTRFPPAV [PRP8]	3.06 ± 0.076
VKLGNIWKESLIELSGG [SMC2]	2.24 ± 0.098

Sequence	protein stability index
VKLQMIKFGGLIIQKIP [ECM29]	1.89 ± 0.065
VKNLSLMSCISVGTDPM [RPB2]	1.67 ± 0.061
VKQLENVSSNIVKNAEQ [RPS20]	2.84 ± 0.081
VKSFKPHLLKQGLAMVE [RRP42]	2.35 ± 0.1
VKSLRQGKSKLIIIAAN [RPL30]	1.4 ± 0.11
VKTKTIELIDYDKLPAG [RET1]	3.42 ± 0.13
VLEDVYRCFAQLELRQL [RRI2]	2.61 ± 0.17
VLEFCKDYEAKTKAMSL [POP1]	2.67 ± 0.043
VLGNSRGVDAGKGNTFE [RPN14]	3.01 ± 0.17
VLKADRSWNEPSKSQTN [YML103C/NUP188]	3.16 ± 0.1
VLKVDKRFMNTSQNPQR [BRR2]	3.2 ± 0.06
VLKVYSMINNSNQAVGQ [SRB8]	2.78 ± 0.065
VLQEYRLTKQAFDWVLS [RPO21]	2.48 ± 0.069
VLRLATNKGPLAQIWLA [MCD1]	1.31 ± 0.052
VLVGSCAYTGTGDVLLI [RPN1]	3.35 ± 0.067
VLYQSNATHDEDEFIVQ [SWP82]	3.14 ± 0.038
VMEIGKDAEYLRNYLTP [PUP1]	2.85 ± 0.096
VMGTPLTNMMSPMGNAY [PGD1]	2.24 ± 0.21
VMMDVDSSGVNDLHHSE [RPN3]	3.31 ± 0.076
VNARDIPPLNKSLAMEH [CSN12]	2.67 ± 0.17
VNGSITDQLIQNIETRQ [NUT1]	3.01 ± 0.092
VNGSPITLVEPEILRFK [RPS16A]	2.79 ± 0.15
VNNCIWALKSSLNSMTN [RGR1]	2.39 ± 0.22
VNWLAYTYLYVRMLASP [BRR2]	1.14 ± 0.18

Sequence	protein stability index
VNYLISNTMYSVRLFSF [YJL039C/NUP192]	1.42 ± 0.058
VPDSKIRIYDLGKKKAT [RPL10]	1.35 ± 0.071
VPEFFQTANEKHITVRL [SRP14]	2.67 ± 0.11
VPGMPAPIKKIIERYIK [PRP8]	3.23 ± 0.13
VPGPGTKLIQYEHNGRT [CSL4]	3.06 ± 0.058
VPIKSSKSGRIFALVFS [RPN13]	2.41 ± 0.091
VPTLEAKRDYIISRLNA [FAS1]	3.35 ± 0.16
VPTVPPSQSEEQKGQMA [MED4]	2.82 ± 0.058
VPVKLEEIKTVDPASAP [RRP6]	2.56 ± 0.16
VQDCRYSLASVTLKGAK [POP1]	2.68 ± 0.051
VQIKDVNDRYQIPTPNN [CSI1]	2.25 ± 0.064
VQISNIPDIGDLPDTEG [PRP8]	3.29 ± 0.059
VQKSTKTFSYKRPSTFY [RPL20A]	3.34 ± 0.084
VQLRYGDYDSHDISRYV [PRP8]	2.46 ± 0.064
VQLSPSNPQHIIQPFLD [RGR1]	2.85 ± 0.062
VQNSTLAQLTSKLIPEV [RPS1B]	2.73 ± 0.062
VQPTIGQLPQLPKLNLP [SNF5]	2.75 ± 0.046
VQQSEKLRNEVERIQKM [YIL149C/MLP2]	3.42 ± 0.2
VQRQIEQQKGQQTAQTQ [SNF5]	3.3 ± 0.078
VRCVNCSKSIPKDKAIK [RPS26A]	3 ± 0.071
VRDVAAQDFINAYASFL [RPS19A]	2.5 ± 0.092
VRFIGDSVAAIGIPVNK [QCR2]	2.52 ± 0.16
VRKETYSSYIYKVLKQT [HTB2]	3.26 ± 0.065
VRMRLAQLTHSLRRIRD [MED8]	2.04 ± 0.063

Sequence	protein stability index
VRNSFPLDEIPVDVDFN [REC8]	2.33 ± 0.096
VRQKIKTLKRMIKESST [POP1]	1.68 ± 0.052
VRVQFQFTGFLLHEMTQ [GRR1]	2.08 ± 0.061
VSAAEDESLIRELYKYV [PRP28]	3.27 ± 0.13
VSFDFNGVPGQALDAVR [MED8]	3.36 ± 0.079
VSIKFTNAAFPFHDPEA [ECM29]	2.11 ± 0.053
VSKKELYAIKKVTLNKE [BRR2]	2.01 ± 0.11
VSLIKKYKLISRIVEIF [YML103C/NUP188]	1.94 ± 0.049
VSLVAEATSNTNSEDKL [MED4]	3.03 ± 0.078
VSLVVNFQISKKMDDYI [PRP28]	2.05 ± 0.07
VSMITDHNALPQRCTFA [POP1]	3.01 ± 0.11
VSNLMGRNIGHPIIQDK [RPB3]	3.43 ± 0.072
VSNPGDNPPPADNGEEY [MED2]	2.86 ± 0.1
VSSESSDEAIIPVNKRR [SIR3]	2.98 ± 0.12
VSTKTNEYRLAFYQVTP [RPL22A]	2.19 ± 0.04
VSTRAIDLLWKGKTPKN [PRP28]	1.48 ± 0.12
VSVRKHLERNRKDKDAK [RPS13]	3.31 ± 0.095
VTEDGTVVTVVSTAKFS [RPL22A]	2.81 ± 0.14
VTFSVMPPKKSWRNITN [SMC4]	2.45 ± 0.15
VTKILPHLIIQNHNSKS [IRR1]	1.19 ± 0.072
VTLDFGNIFADLLPNSF [SMC2]	2.86 ± 0.067
VTLVNGKRRMNPGPSVQ [RPS30A]	2.94 ± 0.031
VTPIIDGIVVKNAVVRS [ARP7]	1.92 ± 0.082
VTPTKTEVIIRATRTQD [RPS3]	1.91 ± 0.044
